{"source": "the supplement of paper PMC10567573", "parents": {"B1": {"name": "GLTSCR2 (parent)", "chain": "FQRRNMIEPRERAKFKRKYKVKLV"}}}
{"variants_of": "B1", "assay": "protein stability index of a GFP-peptide fusion (GPS, HEK-293T) (PSI 1-6); higher = more stable", "conditions": "c terminus: a fixed tail appended"}
{"variant": "FQRRNAIEPRERAKFKRKYKVKLV", "protein stability index": 2.56}
{"variant": "FQFRNMIEPRERAKFKRKYKVKLV", "protein stability index": 1.75}
{"variant": "FQSRNMIEPRERAKFKRKYKVKLV", "protein stability index": 1.65}
{"variant": "FQNRNMIEPRERAKFKRKYKVKLV", "protein stability index": 2.66}
{"variant": "FQGRNMIEPRERAKFKRKYKVKLV", "protein stability index": 2.17}
{"variant": "FQERNMIEPRERAKFKRKYKVKLV", "protein stability index": 2.69}
{"variant": "FQVRNMIEPRERAKFKRKYKVKLV", "protein stability index": 2.04}
{"variant": "FQIRNMIEPRERAKFKRKYKVKLV", "protein stability index": 2.17}
{"variant": "FQKRNMIEPRERAKFKRKYKVKLV", "protein stability index": 2.6}
{"variant": "FQHRNMIEPRERAKFKRKYKVKLV", "protein stability index": 1.93}
{"variant": "FQMRNMIEPRERAKFKRKYKVKLV", "protein stability index": 2.68}
{"variant": "FQTRNMIEPRERAKFKRKYKVKLV", "protein stability index": 1.79}
{"variant": "FQPRNMIEPRERAKFKRKYKVKLV", "protein stability index": 1.96}
{"variant": "FQARNMIEPRERAKFKRKYKVKLV", "protein stability index": 2.8}
{"variant": "FQDRNMIEPRERAKFKRKYKVKLV", "protein stability index": 2.71}
{"variant": "FQYRNMIEPRERAKFKRKYKVKLV", "protein stability index": 1.6}
{"variant": "FQCRNMIEPRERAKFKRKYKVKLV", "protein stability index": 2.38}
{"variant": "FQQRNMIEPRERAKFKRKYKVKLV", "protein stability index": 2.26}
{"variant": "FQLRNMIEPRERAKFKRKYKVKLV", "protein stability index": 2.37}
{"variant": "FQWRNMIEPRERAKFKRKYKVKLV", "protein stability index": 1.58}
{"variant": "FQRRAMIEPRERAKFKRKYKVKLV", "protein stability index": 2.59}
{"variant": "FQRREMIEPRERAKFKRKYKVKLV", "protein stability index": 3.05}
{"variant": "FQRRQMIEPRERAKFKRKYKVKLV", "protein stability index": 2.36}
{"variant": "FQRRHMIEPRERAKFKRKYKVKLV", "protein stability index": 1.88}
{"variant": "FQRRCMIEPRERAKFKRKYKVKLV", "protein stability index": 2.62}
{"variant": "FQRRIMIEPRERAKFKRKYKVKLV", "protein stability index": 2.36}
{"variant": "FQRRRMIEPRERAKFKRKYKVKLV", "protein stability index": 2.56}
{"variant": "FQRRPMIEPRERAKFKRKYKVKLV", "protein stability index": 2.36}
{"variant": "FQRRDMIEPRERAKFKRKYKVKLV", "protein stability index": 2.23}
{"variant": "FQRRMMIEPRERAKFKRKYKVKLV", "protein stability index": 2.5}
{"variant": "FQRRTMIEPRERAKFKRKYKVKLV", "protein stability index": 1.88}
{"variant": "FQRRKMIEPRERAKFKRKYKVKLV", "protein stability index": 2.42}
{"variant": "FQRRSMIEPRERAKFKRKYKVKLV", "protein stability index": 2.02}
{"variant": "FQRRYMIEPRERAKFKRKYKVKLV", "protein stability index": 2.33}
{"variant": "FQRRVMIEPRERAKFKRKYKVKLV", "protein stability index": 2.29}
{"variant": "FQRRLMIEPRERAKFKRKYKVKLV", "protein stability index": 2.83}
{"variant": "FQRRGMIEPRERAKFKRKYKVKLV", "protein stability index": 2.57}
{"variant": "FQRRFMIEPRERAKFKRKYKVKLV", "protein stability index": 1.59}
{"variant": "FQRRWMIEPRERAKFKRKYKVKLV", "protein stability index": 2.1}
{"variant": "FQRYNMIEPRERAKFKRKYKVKLV", "protein stability index": 2.42}
{"variant": "FQRMNMIEPRERAKFKRKYKVKLV", "protein stability index": 1.86}
{"variant": "FQRWNMIEPRERAKFKRKYKVKLV", "protein stability index": 1.96}
{"variant": "FQRANMIEPRERAKFKRKYKVKLV", "protein stability index": 2.21}
{"variant": "FQRNNMIEPRERAKFKRKYKVKLV", "protein stability index": 2.7}
{"variant": "FQRKNMIEPRERAKFKRKYKVKLV", "protein stability index": 1.95}
{"variant": "FQRCNMIEPRERAKFKRKYKVKLV", "protein stability index": 2.02}
{"variant": "FQRTNMIEPRERAKFKRKYKVKLV", "protein stability index": 2.6}
{"variant": "FQRLNMIEPRERAKFKRKYKVKLV", "protein stability index": 2.51}
{"variant": "FQRGNMIEPRERAKFKRKYKVKLV", "protein stability index": 1.9}
{"variant": "FQRVNMIEPRERAKFKRKYKVKLV", "protein stability index": 3.02}
{"variant": "FQRENMIEPRERAKFKRKYKVKLV", "protein stability index": 2}
{"variant": "FQRSNMIEPRERAKFKRKYKVKLV", "protein stability index": 2.35}
{"variant": "FQRPNMIEPRERAKFKRKYKVKLV", "protein stability index": 1.73}
{"variant": "FQRHNMIEPRERAKFKRKYKVKLV", "protein stability index": 2.13}
{"variant": "FQRQNMIEPRERAKFKRKYKVKLV", "protein stability index": 2.85}
{"variant": "FQRDNMIEPRERAKFKRKYKVKLV", "protein stability index": 1.98}
{"variant": "FQRINMIEPRERAKFKRKYKVKLV", "protein stability index": 2.14}
{"variant": "QQRRNMIEPRERAKFKRKYKVKLV", "protein stability index": 2.99}
{"variant": "IQRRNMIEPRERAKFKRKYKVKLV", "protein stability index": 3.03}
{"variant": "YQRRNMIEPRERAKFKRKYKVKLV", "protein stability index": 2.51}
{"variant": "KQRRNMIEPRERAKFKRKYKVKLV", "protein stability index": 2.96}
{"variant": "PQRRNMIEPRERAKFKRKYKVKLV", "protein stability index": 3.05}
{"variant": "VQRRNMIEPRERAKFKRKYKVKLV", "protein stability index": 2.81}
{"variant": "DQRRNMIEPRERAKFKRKYKVKLV", "protein stability index": 2.83}
{"variant": "RQRRNMIEPRERAKFKRKYKVKLV", "protein stability index": 3.03}
{"variant": "TQRRNMIEPRERAKFKRKYKVKLV", "protein stability index": 3.11}
{"variant": "LQRRNMIEPRERAKFKRKYKVKLV", "protein stability index": 3.01}
{"variant": "CQRRNMIEPRERAKFKRKYKVKLV", "protein stability index": 2.69}
{"variant": "SQRRNMIEPRERAKFKRKYKVKLV", "protein stability index": 2.77}
{"variant": "NQRRNMIEPRERAKFKRKYKVKLV", "protein stability index": 2.59}
{"variant": "HQRRNMIEPRERAKFKRKYKVKLV", "protein stability index": 2.69}
{"variant": "EQRRNMIEPRERAKFKRKYKVKLV", "protein stability index": 2.57}
{"variant": "MQRRNMIEPRERAKFKRKYKVKLV", "protein stability index": 2.08}
{"variant": "WQRRNMIEPRERAKFKRKYKVKLV", "protein stability index": 2.41}
{"variant": "AQRRNMIEPRERAKFKRKYKVKLV", "protein stability index": 3.04}
{"variant": "FYRRNMIEPRERAKFKRKYKVKLV", "protein stability index": 2.08}
{"variant": "FVRRNMIEPRERAKFKRKYKVKLV", "protein stability index": 1.57}
{"variant": "FFRRNMIEPRERAKFKRKYKVKLV", "protein stability index": 1.58}
{"variant": "FRRRNMIEPRERAKFKRKYKVKLV", "protein stability index": 2.62}
{"variant": "FHRRNMIEPRERAKFKRKYKVKLV", "protein stability index": 2.21}
{"variant": "FKRRNMIEPRERAKFKRKYKVKLV", "protein stability index": 2.21}
{"variant": "FIRRNMIEPRERAKFKRKYKVKLV", "protein stability index": 2.08}
{"variant": "FMRRNMIEPRERAKFKRKYKVKLV", "protein stability index": 2.7}
{"variant": "FCRRNMIEPRERAKFKRKYKVKLV", "protein stability index": 1.99}
{"variant": "FARRNMIEPRERAKFKRKYKVKLV", "protein stability index": 1.99}
{"variant": "FLRRNMIEPRERAKFKRKYKVKLV", "protein stability index": 1.94}
{"variant": "FWRRNMIEPRERAKFKRKYKVKLV", "protein stability index": 1.84}
{"variant": "FERRNMIEPRERAKFKRKYKVKLV", "protein stability index": 2.3}
{"variant": "FSRRNMIEPRERAKFKRKYKVKLV", "protein stability index": 2.43}
{"variant": "FNRRNMIEPRERAKFKRKYKVKLV", "protein stability index": 2.42}
{"variant": "FTRRNMIEPRERAKFKRKYKVKLV", "protein stability index": 2.65}
{"variant": "FGRRNMIEPRERAKFKRKYKVKLV", "protein stability index": 2.3}
{"variant": "FPRRNMIEPRERAKFKRKYKVKLV", "protein stability index": 2.06}
{"variant": "FDRRNMIEPRERAKFKRKYKVKLV", "protein stability index": 2.35}
